# Test results taken from patent publication US5851983A, “Elastase inhibitory polypeptide and process for production thereof by recombinant gene technology” (Teijin Limited, priority 1987, dated 1998).
# B1: SLPI: Human secretory leukoprotease inhibitor; recombinant SLPI of Reference Example 1 used as control (protein)
# chain: SGKSFKAGVCPPKKSAQCLRYKKPECQSDWQCPGKKRCCPDTCGIKCLDPVDTPNPTRRKPGKCPVTYGQCLMLNPPNFCEMDGQCKRDLKCCMGMCGKSCVSPVKA
# Columns and labels:
# [1] = biological target: T1, Human plasma plasmin (Homo sapiens, UniProt P00747); assay: Assay for plasmin inhibitory activity (Example 36); assay type: biochemical; settings: final concentration up to ×10^-5 M; enzyme 1.0 × 10^-7 M
# T1 construct: (6) Human plasma plasmin (Kabi, Daiichi Kagaku Yakuhin); purchased Kabi (via Daiichi Kagaku Yakuhin); host or cells: human plasma
# Protocol: G. Human plasma plasmin (sigma)
# Plasmin: 50 mM Tris-HCl, 100 mM NaCl (pH 7.4) […]
# (§1) Substrate solution: for the enzymes F, G, H and I, the following substrate f, g, h or i, respectively, was dissolved to a final concentration shown in Table 24.
# g. H.D-Val-Leu-Lys-pNA (Kabi Vitrum)
# (§2) To wells of an ELISA 96-well microtiter plate, were added a solution of (Arg^58 -Ala^107) SLPI obtained in Example 34 and then the enzyme solution, and the mixture was incubated at 37° C. for 10 minutes. Next, the substrate solution was added to develop the color, whose absorption was then measured at 405 nm. As a control, SLPI was used.
# [2] = biological target: T2, polymorphonuclear leucocyte elastase from human sputum (Homo sapiens, UniProt P08246); assay: Treatment with polymorphonuclear leucocyte elastase from human sputum (Examples 27, 30); assay type: in vitro ADME; settings: 37° C.
# T2 construct: Polymorphonuclear leukocyte elastase from human sputum (EPC Co; Funakoshi Yakuhin); purchased EPC Co. (via Funakoshi Yakuhin); host or cells: human sputum
# T2 sequence (P08246 30-267): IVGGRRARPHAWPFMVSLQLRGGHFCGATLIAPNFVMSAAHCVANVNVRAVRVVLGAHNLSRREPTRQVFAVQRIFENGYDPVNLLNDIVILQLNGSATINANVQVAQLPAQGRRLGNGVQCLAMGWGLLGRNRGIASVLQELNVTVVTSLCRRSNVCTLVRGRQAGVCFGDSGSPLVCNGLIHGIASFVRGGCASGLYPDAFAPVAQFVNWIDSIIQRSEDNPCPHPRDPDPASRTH
# Protocol: Polymorphonuclear leucocyte elastase from human sputum (EPC, Funakoshi Yakuhin) and SLPI were separately dissolved in a buffer (0.1M HEPES, 0.1M NaCl, 0.1% PEG 6000, pH 7.5) and the elastase solution was added to the SLPI solution, and the mixture was incubated at 37° C. Samples were taken as time elapsed, and to each sample were added Tris-HCl buffer (pH 6.8), SDS, 2-mercaptolethanol, glycerol, and Coomassie Brilliant Blue to final concentrations of 50 mM, 4 w/v %, 2 v/v %, 12 v/v % and 0.01 w/v % respectively. The mixture was subjected to SDS-polyacrylamide gel electrophoresis using Tricine (Sigma) as a polar buffer (Schagger, H., Anal. Biochem. 166, 368, 1987). After the electrophoresis, the gel was stained with Coomassie Brilliant Blue G-250, and decoloured with 50% (v/v) methanol/10% (v/v) acetic acid.
# (1) A result of a test, wherein elastase was added to 100 μM SLPI to an elastase final concentration of 200 μM, and the mixture was incubated at 37° C. up to 192 hours taking samples as time elapsed, is shown in FIG. 20. […]
# (3) Next, polypeptides thus generated were electrically transferred to a membrane (Immobilon-p^SQ Millipore) using a Milli Blot-SDE apparatus (Millipore). […] After drying, relevant bands were cut out, and the peptide was cleaved from the N-terminal using an Applied Biosystems Protein-Sequencer (Applied Biosystems; 477A), and after PTH-conversion, the resulting amino acid derivatives were analyzed by a PTH-Amino acid analyzer (Applied Biosystems, 120A) to determine the N-terminal amino acid sequence.
# According to the same procedure as described in Example 27, (Asn^55 -Ala^107) SLPI (final concentration 100 μM) was treated with elastase (final concentration 200 μM) at 37° C. for 48 hours. The sample was separated by SDS-PAGE, and electrically transferred to a filter as described in Example 27, a band corresponding to a molecular weight of about 5,500 was cut out, and an N-terminal amino acid sequence was analyzed.
# [3] = biological target: T3, Human plasma kallikrein (Homo sapiens, UniProt P03952); assay: Assay for kallikrein inhibitory activity (Example 36); assay type: biochemical; settings: final concentration up to ×10^-5 M; enzyme 1.0 × 10^-7 M
# T3 construct: (7) Human plasma kallikrein (Kabi, Daiichi Kagaku Yakuhin); purchased Kabi (via Daiichi Kagaku Yakuhin); host or cells: human plasma
# Protocol: H. Human plasma kallikrein (Protogene, Funakoshi Yakuhin)
# Kallikrein: 50 mM Tris-HCl, 361 mM NaCl, 0.01 mg/ml Polybrene (pH 7.8) […]
# as §1
# h. H.D-Pro-Phe-Arg-pNA (Kabi Vitram)
# as §2
# T3 sequence (P03952 391-638 limits assumed): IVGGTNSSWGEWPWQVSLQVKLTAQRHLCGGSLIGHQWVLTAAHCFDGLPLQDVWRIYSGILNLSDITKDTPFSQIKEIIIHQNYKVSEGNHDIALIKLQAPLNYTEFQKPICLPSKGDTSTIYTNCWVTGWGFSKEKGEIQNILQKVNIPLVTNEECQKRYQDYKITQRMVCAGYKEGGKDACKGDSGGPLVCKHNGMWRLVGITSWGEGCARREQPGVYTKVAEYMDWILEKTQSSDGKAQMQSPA
# T3 sequence (P03952 20-390 partner limits assumed): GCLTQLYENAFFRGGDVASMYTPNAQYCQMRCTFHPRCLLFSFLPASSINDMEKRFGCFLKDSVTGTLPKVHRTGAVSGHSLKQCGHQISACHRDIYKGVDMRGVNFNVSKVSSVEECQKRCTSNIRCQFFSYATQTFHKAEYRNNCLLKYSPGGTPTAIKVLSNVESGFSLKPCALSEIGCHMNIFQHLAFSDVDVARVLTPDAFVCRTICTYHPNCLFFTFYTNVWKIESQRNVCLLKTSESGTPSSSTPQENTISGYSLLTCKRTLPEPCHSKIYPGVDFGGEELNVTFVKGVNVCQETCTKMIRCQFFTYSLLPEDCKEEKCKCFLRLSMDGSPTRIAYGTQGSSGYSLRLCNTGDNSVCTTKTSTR
# T1 sequence (P00747 581-810 limits assumed): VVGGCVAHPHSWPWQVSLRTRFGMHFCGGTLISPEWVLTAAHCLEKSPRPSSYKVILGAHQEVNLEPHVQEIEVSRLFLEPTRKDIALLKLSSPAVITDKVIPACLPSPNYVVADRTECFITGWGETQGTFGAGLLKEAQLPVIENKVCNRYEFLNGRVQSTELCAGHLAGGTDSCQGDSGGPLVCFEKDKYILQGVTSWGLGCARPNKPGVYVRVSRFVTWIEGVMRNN
# T1 sequence (P00747 97-580 partner limits assumed): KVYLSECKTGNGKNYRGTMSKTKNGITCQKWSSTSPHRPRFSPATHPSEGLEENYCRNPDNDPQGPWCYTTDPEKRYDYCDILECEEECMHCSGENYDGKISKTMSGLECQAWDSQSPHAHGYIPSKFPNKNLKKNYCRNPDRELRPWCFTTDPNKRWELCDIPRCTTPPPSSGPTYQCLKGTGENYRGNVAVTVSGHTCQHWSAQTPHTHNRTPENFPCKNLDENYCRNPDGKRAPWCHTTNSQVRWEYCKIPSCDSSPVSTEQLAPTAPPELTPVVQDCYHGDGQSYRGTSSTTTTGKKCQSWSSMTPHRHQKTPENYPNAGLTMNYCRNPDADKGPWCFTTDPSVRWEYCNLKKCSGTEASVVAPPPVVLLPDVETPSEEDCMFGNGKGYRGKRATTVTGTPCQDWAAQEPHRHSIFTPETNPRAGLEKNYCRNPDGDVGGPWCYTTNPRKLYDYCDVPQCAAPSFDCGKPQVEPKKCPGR
molecule,measurement,setting,value
B1,inhibitory activity to plasmin,[1],did not exhibit inhibitory activity
same,SDS-PAGE band of SLPI on treatment with elastase,"[2]; 50 μM SLPI, not less than 100 μM elastase, one hour",disappeared significantly
same,SDS-PAGE band of SLPI on treatment with elastase,"[2]; 100 μM SLPI, 200 μM elastase",rapidly disappeared after 45 minute incubation
same,selective cleavage sites with elastase from human sputum,[2]; N-terminal sequencing of SDS-PAGE bands,"between Ser^15 -Ala^16, and Thr^57 -Arg^58"
same,inhibitory activity to kallikrein,[3],did not exhibit inhibitory activity
